B1: RST domain of Radical-Induced Cell Death1 (RCD1), RCD1-RST(499-572) (domain or fragment, Arabidopsis, UniProt Q8RY59 499-572, looked up)
chain: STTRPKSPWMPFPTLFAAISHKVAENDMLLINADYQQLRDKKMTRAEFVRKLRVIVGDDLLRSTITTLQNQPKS
B2: TAZ1 domain of HAC1, HAC1-TAZ1(626-724) (domain or fragment, Arabidopsis, UniProt Q9C5X9 626-724, looked up)
chain: GNGNRDPRFKNQQKWLLFLRHARHCKAPEGKCPDRNCVTVQKLWKHMDSCAAPQCSYPRCLPTKTLINHHRSCKEPNCPVCIPVKAYLQQQANARSLAR
B4: ANAC046(300-338), fragment containing AD2/M5 with its context (domain or fragment, Arabidopsis thaliana, UniProt Q9SQQ6 300-338, looked up)
chain: ATPEISSYPMMMNPAMMDGSKSACDGLDDLIFWEDLYTS

Key:
[1] = target: T1, ANAC046 intrinsically disordered region, ANAC046(172-338) (Arabidopsis thaliana, UniProt Q9SQQ6 172-338); experiment: ITC
T1 sequence (looked up): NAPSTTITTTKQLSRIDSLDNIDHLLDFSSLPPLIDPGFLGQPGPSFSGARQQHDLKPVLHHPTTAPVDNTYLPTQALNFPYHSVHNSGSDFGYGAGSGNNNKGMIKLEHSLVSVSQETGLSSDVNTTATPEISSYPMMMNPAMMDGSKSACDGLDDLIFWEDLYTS

[2] = target: B4; experiment: ITC
[3] = target: T1, ANAC046 intrinsically disordered …; experiment: ITC; remark: listed apart in the source
[4] = target: T1, ANAC046 intrinsically disordered …; experiment: NMR titration
[5] = target: B1; experiment: ITC
[6] = target: B2; experiment: ITC
[7] = target: B1; experiment: NMR titration
[8] = target: B2; experiment: NMR titration

B1
Kd [1]: 0.2 µM | dH [1]: -5.5 kcal/mol

B2
dH [2]: -5.98 kcal/mol | stoichiometry N [2]: 0.97 | dH, site AD1/M1-2 (two-site fit) [3]: -15.5 kcal/mol | dH, site AD2/M5 (two-site fit) [3]: -5.98 kcal/mol

B3: KIX domain of HAC1, HAC1-KIX(43-134) (domain or fragment, Arabidopsis, UniProt Q9C5X9 43-134, looked up)
chain: GPSRVSPVDNDILKLRQAMRIRIFNILQQKQPSPADEASKAKYMDVARRLEEGLFKIANTKEDYVNPSTLEPRLASLIKGRQLNNYNQRHAN
binding result [4]: binds

B4
Kd [5]: 0.12 µM | dH [5]: -7.41 kcal/mol | stoichiometry N [5]: 0.8 | Kd [6]: 6 µM

B5: ACID domain of MEDIATOR subunit 25 (MED25), MED25-ACID(532-680) (domain or fragment, Arabidopsis, UniProt Q7XYY2 532-680, looked up)
chain: SNSSAPNMQLSQPSSGAMQTSQSKYVKVWEGNLSGQRQGQPVLITRLEGYRSASASDSLAANWPPTMQIVRLISQDHMNNKQYVGKADFLVFRAMSQHGFLGQLQDKKLCAVIQLPSQTLLLSVSDKACRLIGMLFPGDMVVFKPQIPN
binding result [4]: binds

B6: TAZ2 domain of HAC1, HAC1-TAZ2(1574-1697) (domain or fragment, Arabidopsis, UniProt Q9C5X9 1574-1697, looked up)
chain: NAQNKEARQLRVLQLRKMLDLLVHASQCRSAHCQYPNCRKVKGLFRHGINCKVRASGGCVLCKKMWYLLQLHARACKESECHVPRCRDLKEHLRRLQQQSDSRRRAAVMEMMRQRAAEVAGGSG
binding result [4]: binds

B7: ANAC046(172-222, S175W), fragment containing AD1/M1-2 (domain or fragment, Arabidopsis thaliana, UniProt Q9SQQ6 172-222, looked up)
chain: NAPWTTITTTKQLSRIDSLDNIDHLLDFSSLPPLIDPGFLGQPGPSFSGAR
Kd [7]: 148 µM | Kd [8]: 112 µM

From article PMC12079402 (Protein Science : A Publication of the Protein Society, 2025)
